The values that follow come from US20110319324A1.

The target in assay [1] is EGF receptor (ErbB1) on HeLa 229 cells (UniProt P00533). The experiment in a line: cell-based or functional assay.
The target of assay [2] is ErbB1 receptor (EGF receptor) on HeLa cells (UniProt P00533). The assay is described as follows: cell-based or functional assay.

PEGylated betacellulin produced using the mPEG-ButyrALD-20K reagent, sequence (P35070 other isoform, or with tags, fused parts or gaps limits assumed): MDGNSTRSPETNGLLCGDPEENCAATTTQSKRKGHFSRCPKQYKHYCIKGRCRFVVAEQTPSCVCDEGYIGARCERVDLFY
PEGylated betacellulin produced using the mPEG-SMB-20K reagent, sequence (P35070 other isoform, or with tags, fused parts or gaps limits assumed): as above
Unreacted (SEC fraction of the PEGylation reactions, presumably unreacted betacellulin), sequence (P35070 other isoform, or with tags, fused parts or gaps limits assumed): as above

“PEGylated betacellulin produced using the mPEG-ButyrALD-20K reagent (from UniProt P35070 32-111) (ligand)”: in assay [1], the activity % (phospho-EGFR pY1068 ELISA, HeLa 229 cells) was 58% and the activity % (phospho-EGFR pY1068 ELISA, HeLa 229 cells; SEC column S200) came to 55%. The betacellulin activity in the phospho-EGFR pY1068 ELISA on HeLa 229 cells in assay [2] (scale: % reduction against unreacted betacellulin) is below 50.
With “PEGylated betacellulin produced using the mPEG-SMB-20K reagent (from UniProt P35070 32-111) (ligand)”, in assay [1], the ELISA activity is equivalent to [BTC] nM (phospho-EGFR pY1068 ELISA, HeLa 229 cells; 40 nM submitted; SEC column S200) was determined as 14 nM; the activity % (phospho-EGFR pY1068 ELISA, HeLa 229 cells) amounted to 26%; the activity % (phospho-EGFR pY1068 ELISA, HeLa 229 cells; SEC column S200) was found to be 34%. Besides, the betacellulin activity in the phospho-EGFR pY1068 ELISA on HeLa 229 cells (fold lower than unreacted betacellulin) in assay [2] came to 3.
Regarding “Unreacted (SEC fraction of the PEGylation reactions, presumably unreacted betacellulin) (from UniProt P35070 32-111) (ligand)”, in assay [1], the ELISA activity is equivalent to [BTC] nM (phospho-EGFR pY1068 ELISA, HeLa 229 cells; 40 nM submitted; SEC column S70) amounted to 0 nM and the activity % (phospho-EGFR pY1068 ELISA, HeLa 229 cells) turned out to be 0%.
